Data as given in patent US20200199241A1 (Chugai, published 2020).
Where a chain is given by its changes, count along the chain named. Numbers in names are those of the source. Like-named read-outs stand apart in the source and are kept apart here.

How the values were obtained:
human FcγRIa = target: T1, human FcγRIa (human, UniProt P12314 16-292, limits assumed); experiment: SPR, antibody captured by Protein L, human FcγR as analyte, pH 7.4, 25 C;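 note: biacore T100 or T200 with Protein L amine-coupled on a CM4 chip, FcγRs diluted in ACES saline with polysorbate 20, buffer-only injection as blank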
T1 construct: also called hFcgRIa; hFcgRI
T1 sequence (P12314 16-292 limits assumed): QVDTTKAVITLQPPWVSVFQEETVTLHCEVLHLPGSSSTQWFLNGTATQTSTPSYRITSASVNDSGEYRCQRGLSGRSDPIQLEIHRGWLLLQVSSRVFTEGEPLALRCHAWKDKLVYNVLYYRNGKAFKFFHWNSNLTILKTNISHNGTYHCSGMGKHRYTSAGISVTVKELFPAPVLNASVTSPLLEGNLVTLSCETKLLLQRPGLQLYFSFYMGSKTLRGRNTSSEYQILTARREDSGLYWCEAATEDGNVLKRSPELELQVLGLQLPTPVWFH

human FcγRIIIa(V) = target: T2, human FcγRIIIa(V) (human, UniProt P08637 17-208, limits assumed); experiment: as above
T2 construct: also called hFcgRIIIa(V); allotype V158
T2 sequence (P08637 other isoform, or with tags, fused parts or gaps limits assumed): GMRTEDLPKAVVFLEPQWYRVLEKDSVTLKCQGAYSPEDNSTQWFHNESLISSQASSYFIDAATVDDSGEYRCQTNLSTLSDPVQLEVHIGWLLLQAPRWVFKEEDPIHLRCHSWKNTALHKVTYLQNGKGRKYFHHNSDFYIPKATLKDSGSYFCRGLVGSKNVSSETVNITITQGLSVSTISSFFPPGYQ

human FcγRIIa(H) = target: T3, human FcγRIIa(H) (human, UniProt P12318 36-217); experiment: as above
T3 construct: also called hFcgRIIa(H); FcγRIIa type H
T3 sequence: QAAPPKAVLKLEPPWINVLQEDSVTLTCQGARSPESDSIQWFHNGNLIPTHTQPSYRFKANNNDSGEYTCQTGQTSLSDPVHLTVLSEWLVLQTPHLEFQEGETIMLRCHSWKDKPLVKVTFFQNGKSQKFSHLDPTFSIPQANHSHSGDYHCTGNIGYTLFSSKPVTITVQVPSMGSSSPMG

human FcγRIIa(R) = target: T4, human FcγRIIa(R) (human, UniProt P12318 36-217); experiment: as above
T4 construct: also called hFcgRIIa(R); FcγRIIa type R
T4 chain: T3 sequence with H133R

[1] = target: T5, human FcRn (soluble human FcRn complexed with β2-microglobulin) (human, UniProt P61769 21-119, limits assumed); experiment: SPR, antibody captured by Protein L, human FcRn as analyte, pH 7.0, 25 C
T5 construct: also called hFcRn
T5 sequence (chain, as listed by the source limits assumed, chain 1 of 2): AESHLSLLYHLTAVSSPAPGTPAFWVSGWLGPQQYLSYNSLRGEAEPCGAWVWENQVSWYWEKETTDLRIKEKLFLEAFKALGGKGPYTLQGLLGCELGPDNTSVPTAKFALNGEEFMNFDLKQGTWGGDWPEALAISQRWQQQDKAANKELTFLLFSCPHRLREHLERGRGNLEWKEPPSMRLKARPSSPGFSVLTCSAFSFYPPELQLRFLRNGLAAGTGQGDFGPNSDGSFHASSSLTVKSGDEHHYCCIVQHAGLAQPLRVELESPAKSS
T5 sequence (P61769 21-119 limits assumed, chain 2 of 2): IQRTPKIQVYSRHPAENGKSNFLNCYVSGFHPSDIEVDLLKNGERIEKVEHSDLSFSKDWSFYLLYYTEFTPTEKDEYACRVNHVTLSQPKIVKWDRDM

[2] = target: T5, human FcRn (soluble human FcRn …); experiment: as above; remark: listed apart in the source
mouse FcγRIII [3] = target: T6, mouse FcγRIII (mouse, UniProt P08508 31-215); experiment: SPR, antibody captured by Protein L, mouse FcγR as analyte, pH 7.4, 25 C; set-up: unit not given here
T6 construct: bought; also called mFcgRIII; mFcgR III
T6 sequence (looked up): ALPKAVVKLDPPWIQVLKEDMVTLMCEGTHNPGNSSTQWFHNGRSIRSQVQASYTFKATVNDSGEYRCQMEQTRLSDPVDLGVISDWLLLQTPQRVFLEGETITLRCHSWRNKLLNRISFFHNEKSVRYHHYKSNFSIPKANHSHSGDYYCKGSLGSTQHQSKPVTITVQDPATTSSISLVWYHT

mouse FcγRIV [4] = target: T7, mouse FcγRIV (mouse, UniProt A0A0B4J1G0 21-203); experiment: as above; set-up: unit not given here
T7 construct: bought; also called mFcgRIV; mFcgR IV; the vendor's purification tag not given
T7 sequence: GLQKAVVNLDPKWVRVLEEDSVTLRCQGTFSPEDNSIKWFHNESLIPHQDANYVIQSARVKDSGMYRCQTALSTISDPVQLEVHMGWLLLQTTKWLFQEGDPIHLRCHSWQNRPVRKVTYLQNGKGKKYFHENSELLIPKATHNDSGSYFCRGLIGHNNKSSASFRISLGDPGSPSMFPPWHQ

mouse FcγRIIb [5] = target: T8, mouse FcγRIIb (mouse, UniProt P08101 30-207, limits assumed); experiment: as above; set-up: unit not given here
T8 construct: bought; also called mFcgRIIb; mFcgR IIb
T8 sequence (looked up): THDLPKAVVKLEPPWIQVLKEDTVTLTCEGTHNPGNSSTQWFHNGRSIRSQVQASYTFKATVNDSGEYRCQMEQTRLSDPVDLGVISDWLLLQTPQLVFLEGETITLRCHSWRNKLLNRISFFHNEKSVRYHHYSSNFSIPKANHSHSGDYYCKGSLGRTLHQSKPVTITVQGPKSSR

FcγRIIb [6] = target: T9, FcγRIIb (human, UniProt P31994 43-217, limits assumed); experiment: ratio of SPR KDs: KD for FcγRIIaH over KD for FcγRIIb
T9 construct: SPR analyte; also called FcγIIB; CD32
T9 sequence: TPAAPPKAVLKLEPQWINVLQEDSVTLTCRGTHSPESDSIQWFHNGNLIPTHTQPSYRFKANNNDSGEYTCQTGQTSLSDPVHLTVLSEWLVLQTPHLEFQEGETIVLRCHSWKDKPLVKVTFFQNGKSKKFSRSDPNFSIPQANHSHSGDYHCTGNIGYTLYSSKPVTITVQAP

FcγRIIa type H [7] = target: T10, FcγRIIa type H (human, UniProt P12318 36-217); experiment: ratio of SPR KDs; stronger receptor here FcγRIIaH; reference IL6R-B3/IL6R-L (FcγRIIaH)
T10 construct: SPR analyte; also called FcγRIIaH
T10 sequence: T3 sequence

FcγRIIb [8] = target: T9, FcγRIIb; experiment: ratio of SPR KDs: KD for FcγRIIaR over KD for FcγRIIb
FcγRIIa type H [9] = target: T10, FcγRIIa type H; experiment: SPR (Biacore), antibody captured, FcγR analyte
FcγRIIb [10] = target: T9, FcγRIIb; experiment: SPR (Biacore), antibody captured, FcγR analyte
FcγRIIa type R = target: T11, FcγRIIa type R (human, UniProt P12318 36-217); experiment: SPR (Biacore), antibody captured, FcγR analyte
T11 construct: SPR analyte; also called FcγRIIaR; FcγRIIa(R)
T11 chain: T3 sequence with H133R

FcγRIIIa type V = target: T12, FcγRIIIa type V (human, UniProt P08637 17-208, limits assumed); experiment: SPR (Biacore), antibody captured, FcγR analyte
T12 construct: SPR analyte; allotype V158 was used here; also called FcγRIIIaV; FcγRIIIa(V)
T12 sequence (P08637 other isoform, or with tags, fused parts or gaps limits assumed): as the sequence (P08637 other isoform, or with tags, fused parts or gaps limits assumed) above

FcγRIa = target: T13, FcγRIa (human, UniProt P12314 16-292, limits assumed); experiment: SPR (Biacore), antibody captured, FcγR analyte
T13 construct: SPR analyte; also called CD64
T13 sequence (P12314 16-292 limits assumed): as the sequence (P12314 16-292 limits assumed) above

FcγRIIb [11] = target: T9, FcγRIIb; experiment: ratio of SPR KDs; reference IL6R-B3/IL6R-L
mouse FcγRIII [12] = target: T6, mouse FcγRIII; experiment: SPR (Biacore T100/T200): FcγR injected over the antibody held by mouse FcRn immobilised on a CM4 chip (simultaneous binding), pH 7.4, 25 C
mouse FcγRIV [13] = target: T7, mouse FcγRIV; experiment: as above
mouse FcγRI = target: T14, mouse FcγRI (mouse, UniProt P26151 25-297); experiment: as above
T14 construct: bought; also called mFcgRI; mFcgR 1
T14 sequence (looked up): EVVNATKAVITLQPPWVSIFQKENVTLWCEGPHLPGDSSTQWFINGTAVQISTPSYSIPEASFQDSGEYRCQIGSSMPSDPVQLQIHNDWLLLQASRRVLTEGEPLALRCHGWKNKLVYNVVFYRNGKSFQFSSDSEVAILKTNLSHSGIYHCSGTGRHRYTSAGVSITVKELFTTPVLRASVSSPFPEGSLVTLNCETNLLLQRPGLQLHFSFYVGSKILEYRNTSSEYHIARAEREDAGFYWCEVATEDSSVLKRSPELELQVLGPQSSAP

mouse FcγRIIb [14] = target: T8, mouse FcγRIIb; experiment: as above

B1: antibody with VH3-IgG1-F1326 heavy chain and L(WT)-CK light chain (antibody)
heavy: QVQLQESGPGLVKPSETLSLTCAVSGHSISHDHAWSWVRQPPGEGLEWIGFISYSGITNYNPSLQGRVTISRDNSKNTLYLQMNSLRAEDTAVYYCARSLARTTAMDYWGEGTLVTVSSASTKGPSVFPLAPSSKSTSGGTAALGCLVKDYFPEPVTVSWNSGALTSGVHTFPAVLQSSGLYSLSSVVTVPSSSLGTQTYICNVNHKPSNTKVDKKVEPKSCDKTHTCPPCPAPEAAGGPSVFLFPPKPKDVLYISRTPEVTCVVVDVSHEDPEVKFNWYVDGVEVHNAKTKPREEQYNSTYRVVSVLQPLHADWLNGKEYKCKVSNKALPAPIEKTISKAKGQPREPQVYTLPPSRDELTKNQVSLTCLVKGFYPSDIAVEWESNGQPENNYKTTPPVLDSDGSFFLYSKLTVDKSRWQQGNVFSCSVMHEALHYHVTQKSLSLSP
light: not shown
notes: L234A/L235A/T250V/M252Y/T307Q/V308P/Q311A/N434Y/Y436V; copies: 2 + 2
Q: With B1 as the binder, how does the “BINDING AMOUNT (RU)” value (human FcγRIa) read?
A: 265 RU

Q: What about the “BINDING AMOUNT (RU)” value (human FcγRIIIa(V)) of the same binder?
A: 61.6 RU

Q: And the “BINDING AMOUNT (RU)” value (human FcγRIIa(H))?
A: 11.4 RU

Q: What about the “BINDING AMOUNT (RU)” value (human FcγRIIa(R)) of the same binder?
A: 11.7 RU

Q: And the Kd [1]?
A: 11 nM

Q: And the Kd [2]?
A: 11 nM

Q: And the “binding amount” value (mouse FcγRIII [3])?
A: 532

Q: What about the “binding amount” value (mouse FcγRIV [4]) of the same binder?
A: 85.6

Q: What about the “binding amount” value (mouse FcγRIIb [5]) of the same binder?
A: 19.2

B2: IL6R-B3/IL6R-L (antibody, human IgG1)
heavy: not shown
light: DIQMTQSPSSLSASVGDRVTITCRASQDISSYLNWYQQKPGKAPKLLIYYTSRLHSGVPSRFSGSGSGTDFTFTISSLQPEDIATYYCQQGNTLPYTFGQGTKVEIK
notes: IL6R-G1d with K439E (EU numbering); also called parent polypeptide
Q: For B2, which “KD(IIaH)/KD(IIb)” value (FcγRIIb [6]) is on record?
A: 0.2

Q: What about the “KD of the stronger of FcγRIIaR/FcγRIIaH binding of the variant / that of the parent polypeptide” value (FcγRIIa type H [7]) of the same binder?
A: 1

Q: What about the “KD(IIaR)/KD(IIb)” value (FcγRIIb [8]) of the same binder?
A: 0.3

Q: What about the Kd (FcγRIIa type H [9]) of the same binder?
A: 770 nM

Q: What about the Kd (FcγRIIb [10]) of the same binder?
A: 3100 nM

Q: What about the Kd (FcγRIIa type R) of the same binder?
A: 1100 nM

Q: And the Kd (FcγRIIIa type V)?
A: 330 nM

Q: What about the Kd (FcγRIa) of the same binder?
A: 0.42 nM

Q: And the “KD(IIb) of the parent polypeptide/KD(IIb) of altered polypeptide” value (FcγRIIb [11])?
A: 1

B3: IL6R-G1d/IL6R-L (antibody, human IgG1)
heavy: not shown
light: B2 light
notes: Anti-human IL-6 receptor antibody with the G1d constant region; also called IgG1 (IL6R-G1d)
Q: What does the source list for B3?
A: KD(IIaH)/KD(IIb) (FcγRIIb [6]): 0.3; KD of the stronger of FcγRIIaR/FcγRIIaH binding of the variant / that of the parent polypeptide (FcγRIIa type H [7]): 0.9; KD(IIaR)/KD(IIb) (FcγRIIb [8]): 0.4; Kd (FcγRIIa type H [9]): 670 nM; Kd (FcγRIIb [10]): 2600 nM; Kd (FcγRIIa type R): 1000 nM; Kd (FcγRIIIa type V): 350 nM; Kd (FcγRIa): 0.32 nM; KD(IIb) of the parent polypeptide/KD(IIb) of altered polypeptide (FcγRIIb [11]): 1.2

B4: Fv4-IgG1-F20 (VH3-IgG1-F20 and VL3-CK) (antibody)
heavy: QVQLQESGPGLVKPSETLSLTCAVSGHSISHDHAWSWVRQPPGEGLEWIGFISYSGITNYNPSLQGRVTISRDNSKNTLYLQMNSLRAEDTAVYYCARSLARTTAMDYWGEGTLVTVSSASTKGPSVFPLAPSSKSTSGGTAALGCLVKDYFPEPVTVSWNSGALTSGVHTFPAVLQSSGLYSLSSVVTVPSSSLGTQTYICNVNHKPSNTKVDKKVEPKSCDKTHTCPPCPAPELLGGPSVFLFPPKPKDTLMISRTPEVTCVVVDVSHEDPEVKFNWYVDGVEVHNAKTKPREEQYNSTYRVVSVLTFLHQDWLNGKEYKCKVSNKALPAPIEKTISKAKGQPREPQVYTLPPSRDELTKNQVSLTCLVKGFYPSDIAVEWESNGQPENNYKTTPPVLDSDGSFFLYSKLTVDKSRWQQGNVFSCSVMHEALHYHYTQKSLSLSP
light: DIQMTQSPSSLSASVGDSVTITCQASTDISSHLNWYQQKPGKAPELLIYYGSHLLSGVPSRFSGSGSGTDFTFTISSLEAEDAATYYCGQGNRLPYTFGQGTKVEIERTVAAPSVFIFPPSDEQLKSGTASVVCLLNNFYPREAKVQWKVDNALQSGNSQESVTEQDSKDSTYSLSSTLTLSKADYEKHKVYACEVTHQGLSSPVTKSFNRGEC
notes: copies: 2 + 2
Q: Does B4 bind (mouse FcγRIII [12])?
A: binds

Q: Does B4 bind (mouse FcγRIV [13])?
A: binds

Q: Does B4 bind (mouse FcγRI)?
A: binds

Q: Does B4 bind (mouse FcγRIIb [14])?
A: binds
